We go through 22 sequences from the DeepSol protein solubility set.

This series in a line: soluble on expression in E. coli; label from the status in PepcDB or PDB records.
As for “TVIYDKNEKQAGTLYGQKGTYVELDAISDDLENAVISTEDRSFYKNSGINYKRMLLAIVTLGYSGGGSTITQQLAKNAFLTQEQTVKRKAREFFLALELTKKYSKKEILTMYLNNAYFGNGVWGVEDASQKYFGTSASRLTLDEAATLAGMLKGPGIYNPLYSI”, the “soluble on expression in E. coli” value is given as “not soluble”.
Then “QYAIERHFYSQDFSYISSKFNAIENELKSSLEDVFKQANNSTLYMWVFEGKLNVYQNSSLTIPQNRAYSISSPQVLNHERAIEWSEDSLNIRAFAFQAGEYQVVLGMSINHHILFLDKLD”, with “not soluble”.
For “MAHHHHHHMEPYASPAAVPPPHVVYDALSKAQKAAPQLRPIPAFEVYKVAREEELAAYRMLCRVLFMHHGTPLPKAQQRILDDMGEDLCIGQTRQGLEKEMAEQDKVLQGIRKSGVLRRRGDFTDGVEEMTVEDYLAEAPKDDGNGLFMPTSKVRRVDGADSGATRATVIAAAAGLGAKRKGNVHAAVSKLAKEAETAGKSLLYASSAQEEQQLIQVLQQKRELLVALREELTEA”, the “soluble on expression in E. coli” value is listed as “not soluble”.
For the sequence “MSLKAKAAFFDIDGTLYREGLISEVFKKLIKYEIIDEEKWYKEVRPEFEKWDNRKGDYDDYLLKMTEIYVDALNGLSKSQVEFIASQVVNQKGERVYTYTRDRIKWHKERGHKIITISGSPIELVRNMAEKYGFDDYRGAEYLLDENDVYTGEVIPMWDSKSKERAVHELEAKYNIDLGESYAYGDTSGDLTMLKMVGNPVCINPTKELVKEILSDEEVKNKIRIIVERKDMIYKISSRCLECDCEFVLEGHHHHHH”, the “soluble on expression in E. coli” value is “soluble”.
For the sequence “MAHHHHHHMEKYEFPEDYVNPRNIPRIAYIPDVAAYVSNGGGADTVISNLLMESSKYEHMEKRLVSSLANLDYKIPTIKKTLNSLEFLQKQLEEAEQQEEDGKRAGIRSYYCLTDSVFGEAIVRPQKTVHLWMGAKVMVEYTFEEASALLKKNLSNAEVNMRNTKEDLAWLQEQITNLQINISRVYNYDLKNKRAKD”, the “soluble on expression in E. coli” value was “not soluble”.
With “MVQHQMFDPGVADLLDTDILTSPSKRKRKLKIDDISTSDRSELEDYIVLENVYRMFGITFFPLVDPIDLKIKDASGEIFVDREMLGIRLEVFSERTSQFEKPHYVLLKKRIKSNSWFLFKHTIPSFIDVQGIFDDTNGGLVISHDDAYLFAKRVFLQLVEVQKRRQIFKDLEAKKIIHDLDLDLESSMVSFFVKDIKVELFVKQNEIVSCSILDDIHDFSQNNKSKWEIALLGSLDDLELKLNHSFATIFK”, the “soluble on expression in E. coli” value was “not soluble”.
“MGSDKIHHHHHHMRSPNFYTYAFLNTPDVPLRLPSGNLGQLLLINGNNISAVVEPGISLESSQNNDEEVIKMVLAHDRVICELSQQTTVLPLRFGTYFNSEETLLNHIESHAQEYQKKLDNIQGKTEYTLKLIPRKFEELAKISGGHGRDYFLAKKLHYEHQKSFIGDQNREKHHLINLMMDIYRSSAIIQDYVEEVRLHLLVDRHDKALLFKQVLTLQEKCPHWNLILGEPLPPYHFV”: the “soluble on expression in E. coli” value is “not soluble”.
Take “MSLIYQIAKEFDFCYGHRVWSQELNPDFSLDPCLSCRHLHGHQGKVIVHLESRELQRGMVTDFAHLNWFKRFIDEVLDHRFIIDIDDPLFPTLLPHFADKSALVWMEEGYARVDFERIKGESSPILELYESFVVVRFVPTSESIASWLLELLRSRIQPLGVKVSSVEFLETPKSRARVYNEGHHHHHH”: the “soluble on expression in E. coli” value is “soluble”.
With “MGEAPAVLVDHPENGHSNGVCVKSEPENTEITVDVGDRIFLIGGTHERNNFSIGVQIYDKISNNWFSPIVLGTGPKPSKGYSAFVLEQGRILVIKKGSPRNDSIWFLEVDSPYVREQKKLLRKEVVAWSKGVRGNAEKPIVISGPSGVGKGTLISMLMKEFPSMFGFSVSHTTRSPRSMEMDGVHYHFADKKVMEKEIKDGKFLEFASVHGNLYGTSIESVEAVTDSGKRCILDIDVQGARSVRASSLDAIFIFVCPPSMKELEDRLRARGTETEEQIQKRLRNAEAEIKEGISSGIFGLILYNDNLEECYKKLKNLLGLDGLAHVNGVEIEGINLPIEYAVSKMEDKIIIQETGKETRNKIVVDISSLNGGAPGRTRGILVDAIKF”, the “soluble on expression in E. coli” value is “soluble”.
Consider “PDGQDLAEARQRLDDSLEQAHQQHKALYERLMAYKTQPRMKTWLNELVWAHNQALWDAPTKVLAQGEPDPHLLLTTQLAPELLNTRKELMLISAYFVPGQEGLLYLTGRADAGVNVSLLTNSLEATDVPAVHGGYAPYRKALLEHGVKLYELRRQPGETETMRSSGPHLFRKSHSLVSSESSLHSKAMIFDRQKVFVGSFNFDPRSVLWNTEVGVLVDSPQLAEELRELTLQGMAPSLTYEARLEDGKVVWVTE”, for which the “soluble on expression in E. coli” value is “soluble”.
Then “MIAEAAAVEVQANEAPVVAPIMYKVESNDGKVFEISDEAVKQSNILSNLISTCAPEDVASMDPIPITNVTGNILKMVIEWCEKHKGEALPVEDDSVPKNINVPEWDTNFLKIDNEVLFDLIVACNYLDVPGLMNYGCKMVANMAIGKSPDELRIIFAIPTDEEDEAAERAAKEKAEAEKKAIADKDAAEPSTSK”, with “soluble”; and “MSLSQPRYLSESKVAIKQSSDINGSNLNVGLLLGTGNPSSAEDALYLKEYISSPDMLGVLDKQLNFRQAFGQSGWDFFYHLSEGATREQFLNYYRDRISVVYDDKTGLLTLGTQGFSPEFAEAFNQAVLKESEKFINEISHRIAREQLQFAEDEMQAARVRLNRSKTELLTYQNSNNVLDPEAQALAATSLVNTLVSQRIQMEAELRNLLTYLRDDAPQVISAQNALKSLSTQIDNEKNKITAPDGHKLNRMAVDFEEIKAKVQFDGEIYKLTLTSIEKTRVDAARKLKVLSVISSPQLPEESAFPNREGHHHHHH”, with “soluble”.
For the sequence “MKRPDYRTLQALDAVIRERGFERAAQKLCITQSAVSQRIKQLENMFGQPLLVRTVPPRPTEQGQKLLALLRQVELLEEEWLGDEQTGSTPLLLSLAVNADSLATWLLPALAPVLADSPIRLNLQVEDETRTQERLRRGEVVGAVSIQHQALPSCLVDKLGALDYLFVSSKPFAEKYFPNGVTRSALLKAPVVAFDHLDDMHQAFLQQNFDLPPGSVPCHIVNSSEAFVQLARQGTTCCMIPHLQIEKELASGELIDLTPGLFQRRMLYWHRFAPESRMMRKVTDALLDYGHKVLRQD”, the “soluble on expression in E. coli” value is reported as “soluble”.
With “MRPMTHVPVLYQEALDLLAVRPGGVYVDATLGGAGHARGILERGGRVIGLDQDPEAVARAKGLHLPGLTVVQGNFRHLKRHLAALGVERVDGILADLGVSSFHLDDPSRGFSYQKEGPLDMRMGLEGPTAKEVVNRLPLEALARLLRELGEEPQAYRIARAIVAAREKAPIETTTQLAEIVRKAVGFRRAGHPARKTFQALRIYVNDELNALKEFLEQAAEVLAPGGRLVVIAFHSLEDRVVKRFLRESGLKVLTKKPLVPSEKEAAQNPRARSAKLRAAEKEAP”, the “soluble on expression in E. coli” value is given as “soluble”.
“MGSDKIHHHHHHMSHLLKPKPNLLLIDDDEDVLDACRQLFNLSGYQVRATNSPQKALEALSRDWDGVVISDIYMPAMHGLDLLAAVHHIDPQIPVIMITGHADIPLAVKAVKQGAADFIEKPLDPPTFLALVKKAATQRHQLIGQRQNIQDSLAGQLLGSSAQINDLREQLGQLALTDRDVMLEGPRGVGRNTLAALLHKLGPRAEGPLQQLECALVESPEKLQQAVDASRGGTLILRELEHLPTDSQRWLASFLLDQERRGNKEVRTIAILESQPETLVQEQTLTPECFYYFSQVRLRLPALCERPSDIVPLFMAFLKESCRRLSRKMPTVENRYLDNLKQHSWPGNVRELRNVAELYAVGIVKLANVQRIAAAPSVKGPLDELVDDYEKRLIEDALFLFSGRVSEAADYLNVPRKKLYLRMKKYGLDKECFKPVKPGRG”: the “soluble on expression in E. coli” value was “not soluble”.
On to “MAWPKVQPEVNIGVVGHVDHGKTTLVQAITGIWTSKHSEELKRGMTIKLGYAETNIGVCESCKKPEAYVTEPSCKSCGSDDEPKFLRRISFIDAPGHEVLMATMLSGAALMDGAILVVAANEPFPQPQTREHFVALGIIGVKNLIIVQNKVDVVSKEEALSQYRQIKQFTKGTWAENVPIIPVSALHKINIDSLIEGIEEYIKTPYRDLSQKPVMLVIRSFDVNKPGTQFNELKGGVIGGSIIQGLFKVDQEIKVLPGLRVEKQGKVSYEPIFTKISSIRFGDEEFKEAKPGGLVAIGTYLDPSLTKADNLLGSIITLADAEVPVLWNIRIKYNLLERVVGAKEMLKVDPIRAKETLMLSVGSSTTLGIVTSVKKDEIEVELRRPVAVWSNNIRTVISRQIAGRWRMIGWGLVEI”, for which the “soluble on expression in E. coli” value is given as “soluble”.
Consider “MTRQSQDGDATSTPAERAAAARAAAAEAARIAAEAAAAAEEAEKEARDAEAAENRAPAGVAASSGAAADIAAGYSSEGAALELGTVVLDGVVDSAARVRIPLATVNRHGLVAGATGTGKTKTLQGIAEQLSAAGVPVVMADMKGDLSGLSQPGEAGDKITTRASETGDGEWRPAASPVEFLSLGTEGLGIPVRATITAFGPILLAKVLGLNETQESTLGLIFHWADVQGLALLDLLDLRSVIAHLTSDEGKADLKGIGGVSPATAGVILRALVNLEADGGDTFFGEPELETEDLLRVIDGKGVITLFELGAQAARPALFTTFLMWVLADLFQTLPEEGDLDKPKLVFIFDEAHLLFADASKAFLQQVEQTVKLIRSKGVGVFFCTQLPTDVPNGVLSQLGARIQHALRAFTPDDQKALTKTVRTYPTTENYDLEKALTSLGIGEAIVTVLSERGAPTPVAWTRIRPPRSLMDTIGTDAITAAASSSPLSAKYGQTVDRESAYEKLTAKVAGAPAAEPGLDLPPLPDLPTPPPAQPEGPNMAEQILGNSAVKSFLRSAASAAGREISRSIFGTGKRRRR”, for which the “soluble on expression in E. coli” value was “not soluble”.
Next, “MGSDKIHHHHHHMTDIATYNFAYLDEQTKRMIRRAILKGIAIPGYQVPFASREMPMPYGWGTGGVQVTASIIGPDDVLKVIDQGADDTTNAVSIRAFFKKVANVAVTTNTASATIIQTRHRIPEHPLTAGQVLVYQVPIPEPLRFLEPRETETRKMHALEEYGLMHVKLYEDIAKHGRIATTYAYPVKVEGRYVMDPSPTPKFDNPKMHRSPALQLFGAGREKRIYAVPPFTDVVSLDFEDHPFEVQTFDQPCALCAAENVYLDEVILDDHGGHMFVCSDTDHCEKRREEGHRGHLAPETHLGSEKMEPAQ”: “not soluble”.
Next, “AHHHHHHGSPPIIDPHILRSLHRSELRRRILHYLYEIYPSATYLSEIARVVSSDPSNVRGALVGLGNRYNSESSLVYLGLVEEIVNNGFKYYRLTEYGKKVVEMLKDYQTYYRKFM”: “not soluble”; “MENSHKRGRPDILHQALLVILTDPVIKGDIFIHTIQSKIIKVNPNMRPPKNYLRFIGLMEQLLKYGKIPINGDETLMEVTNLTLDNIVNRYDLILLSEKGEKINPEEICKLDEKWLLGIGAFPHGDFSDKILNLAKKIYSISGFPLETQQVLCRIFSACNS”: “soluble”; “MERAGICHSDGFDLAYRIEGEGAPILVIGSAAYYPRLFSSDIKQKYQWVFVDHRGFAKPKRELRAEDSRLDAVLADIERMRTFLQLEDVTTLGHSGHAFMALEYARTYPKQVRKVALFNTAPDNSEERQRKSESFFMETASLERKKRFEKDIENLPQDIDKDPERRFVHMCIRAEAKSFYQERPHAAALWDGVFTNMPIIDELWGNTFARIDLLQRLADVRMPVYIGLGRYDYLVAPVSLWDAVDGLYPHVDKVIFEKSGHQPMLEEPEAFDQSFRKWLDQ”: “not soluble”.
Then “GPGSMADSNPTKEGTSSAPLHPLKDKWFVFYIPASKGNEYEHETKELGYVSTIEEVYSTINTLPPITLLPNDDNLVFSRNKIEPQFESFPGGMRFSIFCKTKTQCREALTYVVAVVLGEAIGRDACKGECVCDIVRIGHKGSAMYKESVRIEVWAHQSPYNTAMEKYLVSTLSAIPGITVSARPFK”, with “soluble”.
